How the values were obtained:
[1] = molecular target: Acanthamoeba castellanii actin (Acanthamoeba castellanii)
[2] = molecular target: Acanthamoeba castellanii actin (Acanthamoeba castellanii); remark: listed apart in the source

run length, mean of three independent samples, TIRF microscopy with profilin [1]: 24.1 μm
median run length (length of dim filaments after 5 min), TIRF microscopy with profilin; said to be an underestimate [2]: 24 μm
Substance: Fhod-B (C-terminal half: FH1 and FH2 domains and the Fhod-B tail) (domain or fragment)

— PMC10797183
